Assay results from patent US20220363757A1 (SYMPHOGEN A S, published 2022).

T1: human LAG-3 domain 1-2 Fc fusion, chimeric construct #28 (mutated region AA 84-90, cynomolgus backmutations) (human, UniProt P18627 23-266)
T1 construct: not shown: human IgG1 Fc, AA P101-K330
T1 chain: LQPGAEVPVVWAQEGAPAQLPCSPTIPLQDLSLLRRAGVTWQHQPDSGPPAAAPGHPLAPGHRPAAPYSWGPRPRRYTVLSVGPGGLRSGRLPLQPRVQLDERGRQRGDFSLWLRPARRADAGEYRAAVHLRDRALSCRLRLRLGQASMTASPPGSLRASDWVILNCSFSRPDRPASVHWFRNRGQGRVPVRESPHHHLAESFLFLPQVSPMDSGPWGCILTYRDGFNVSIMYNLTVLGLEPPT

T2: human LAG-3 domain 1-2 Fc fusion, chimeric construct #22 (mutated region AA 140-142) (human, UniProt P18627 23-266)
T2 construct: not shown: human IgG1 Fc, AA P101-K330
T2 chain: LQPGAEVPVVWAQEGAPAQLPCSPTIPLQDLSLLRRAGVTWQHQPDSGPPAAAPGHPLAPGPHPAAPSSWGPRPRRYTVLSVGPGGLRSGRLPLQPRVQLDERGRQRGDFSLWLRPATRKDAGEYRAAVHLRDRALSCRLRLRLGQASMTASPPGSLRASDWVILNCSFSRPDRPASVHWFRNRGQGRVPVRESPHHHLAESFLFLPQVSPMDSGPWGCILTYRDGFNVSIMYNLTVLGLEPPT

T3: human LAG-3 domain 1-2 Fc fusion, chimeric construct #23 (mutated region AA 148-152) (human, UniProt P18627 23-266)
T3 construct: not shown: human IgG1 Fc, AA P101-K330
T3 chain: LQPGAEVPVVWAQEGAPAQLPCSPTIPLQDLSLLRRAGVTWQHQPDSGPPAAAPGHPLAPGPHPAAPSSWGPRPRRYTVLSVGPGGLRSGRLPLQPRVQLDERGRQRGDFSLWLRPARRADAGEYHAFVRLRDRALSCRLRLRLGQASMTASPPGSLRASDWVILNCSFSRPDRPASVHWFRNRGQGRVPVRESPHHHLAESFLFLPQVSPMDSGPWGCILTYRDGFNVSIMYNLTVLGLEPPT

T4: human LAG-3 domain 1-2 Fc fusion, chimeric construct #15 (mutated region AA 95-100) (human, UniProt P18627 23-266)
T4 construct: not shown: human IgG1 Fc, AA P101-K330
T4 chain: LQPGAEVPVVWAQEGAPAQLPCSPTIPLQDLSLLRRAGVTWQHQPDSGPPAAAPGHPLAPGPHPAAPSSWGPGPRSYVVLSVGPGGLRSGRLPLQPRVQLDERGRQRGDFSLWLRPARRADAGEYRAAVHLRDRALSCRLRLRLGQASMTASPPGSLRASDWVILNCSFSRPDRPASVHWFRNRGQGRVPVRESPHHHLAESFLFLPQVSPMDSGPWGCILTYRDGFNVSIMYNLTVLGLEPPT

T5: human LAG-3 domain 1-2 Fc fusion, chimeric construct #14 (mutated region AA 88-97) (human, UniProt P18627 23-266)
T5 construct: not shown: human IgG1 Fc, AA P101-K330
T5 chain: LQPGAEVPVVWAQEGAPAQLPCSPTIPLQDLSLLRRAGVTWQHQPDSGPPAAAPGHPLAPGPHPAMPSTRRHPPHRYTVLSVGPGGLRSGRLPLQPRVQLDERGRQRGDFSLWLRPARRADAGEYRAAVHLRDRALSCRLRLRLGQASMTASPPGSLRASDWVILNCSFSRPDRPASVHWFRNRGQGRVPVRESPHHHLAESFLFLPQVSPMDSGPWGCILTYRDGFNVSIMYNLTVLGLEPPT

T6: human LAG-3 domain 1-2 Fc fusion, chimeric construct #11 (mutated region AA 74-82) (human, UniProt P18627 23-266)
T6 construct: not shown: human IgG1 Fc, AA P101-K330
T6 chain: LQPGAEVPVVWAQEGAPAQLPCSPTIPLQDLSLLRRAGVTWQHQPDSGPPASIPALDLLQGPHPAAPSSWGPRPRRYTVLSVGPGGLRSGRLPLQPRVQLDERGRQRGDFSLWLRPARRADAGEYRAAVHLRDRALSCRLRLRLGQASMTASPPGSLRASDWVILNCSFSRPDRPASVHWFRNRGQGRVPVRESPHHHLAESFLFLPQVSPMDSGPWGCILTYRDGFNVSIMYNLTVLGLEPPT

T7: human LAG-3 domain 1-2 Fc fusion, chimeric construct #26 (mutated region AA 157-161) (human, UniProt P18627 23-266)
T7 construct: not shown: human IgG1 Fc, AA P101-K330
T7 chain: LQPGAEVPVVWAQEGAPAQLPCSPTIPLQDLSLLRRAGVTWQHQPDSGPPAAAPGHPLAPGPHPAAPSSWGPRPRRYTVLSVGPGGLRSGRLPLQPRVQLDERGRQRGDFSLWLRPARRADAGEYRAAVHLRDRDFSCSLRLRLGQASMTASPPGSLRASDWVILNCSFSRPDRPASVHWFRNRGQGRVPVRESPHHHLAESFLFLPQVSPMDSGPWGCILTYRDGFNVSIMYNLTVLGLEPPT

T8: human LAG-3 domain 1-2 Fc fusion, chimeric construct #9 (mutated region AA 66-71) (human, UniProt P18627 23-266)
T8 construct: not shown: human IgG1 Fc, AA P101-K330
T8 chain: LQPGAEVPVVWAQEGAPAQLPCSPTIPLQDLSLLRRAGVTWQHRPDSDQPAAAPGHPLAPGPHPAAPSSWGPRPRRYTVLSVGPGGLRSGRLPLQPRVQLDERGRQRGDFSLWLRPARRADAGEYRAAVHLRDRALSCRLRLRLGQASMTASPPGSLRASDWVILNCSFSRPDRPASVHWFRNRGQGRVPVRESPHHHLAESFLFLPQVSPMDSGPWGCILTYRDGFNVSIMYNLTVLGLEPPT

T9: human LAG-3 domain 1-2 Fc fusion, chimeric construct #19 (mutated region AA 118-127) (human, UniProt P18627 23-266)
T9 construct: not shown: human IgG1 Fc, AA P101-K330
T9 chain: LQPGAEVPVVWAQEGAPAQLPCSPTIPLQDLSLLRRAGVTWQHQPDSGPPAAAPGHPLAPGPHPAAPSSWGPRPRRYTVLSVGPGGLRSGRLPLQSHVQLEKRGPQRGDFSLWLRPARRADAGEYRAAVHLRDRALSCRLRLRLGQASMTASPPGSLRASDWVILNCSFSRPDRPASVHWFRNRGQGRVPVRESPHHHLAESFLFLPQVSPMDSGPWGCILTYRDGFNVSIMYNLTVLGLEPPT


What was measured:
Assay in all cases: SPR, Fab over captured mutant LAG-3-Fc;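 note: LAG-3 fusion proteins captured on an anti-human IgG Fc sensor chip and read on an IBIS MX96 biosensor, Fab association and dissociation each 15 min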
[1] = biological target: T1, human LAG-3 domain 1-2 Fc fusion, …
Protocol: (§1) The LAG-3 fusion proteins were immobilized onto a G-a-hu-IgG Fc SensEye® (Ssens BV, The Netherlands) for 15 minutes using a Continuous Flow Microspotter (CFM, Wasatch Microfluidics, Salt Lake City, US). After spotting, the SensEye® was positioned in an IBIS MX96 biosensor and captured proteins were evaluated for binding affinity. […] Fab association was performed for 15 minutes and antigen dissociation was performed for 15 minutes. The recorded binding responses were fitted to a simple Langmuir 1:1 binding model with Scrubber 2 software for calculation of the on-rate (kon or ka), off-rate (koff or kd) and affinity (KD) constants.

[2] = biological target: T2, human LAG-3 domain 1-2 Fc fusion, …
Protocol: as §1

[3] = biological target: T3, human LAG-3 domain 1-2 Fc fusion, …
Protocol: as §1

[4] = biological target: T4, human LAG-3 domain 1-2 Fc fusion, …
Protocol: as §1

[5] = biological target: T5, human LAG-3 domain 1-2 Fc fusion, …
Protocol: as §1

[6] = biological target: T6, human LAG-3 domain 1-2 Fc fusion, …
Protocol: as §1

[7] = biological target: T7, human LAG-3 domain 1-2 Fc fusion, …
Protocol: as §1

[8] = biological target: T8, human LAG-3 domain 1-2 Fc fusion, …
Protocol: as §1

[9] = biological target: T9, human LAG-3 domain 1-2 Fc fusion, …
Protocol: as §1

Row | Binder | KD mutant/KD wild type [1] [fold] | KD mutant/KD wild type [2] [fold] | KD mutant/KD wild type [3] [fold] | KD mutant/KD wild type [4] [fold] | KD mutant/KD wild type [5] [fold] | KD mutant/KD wild type [6] [fold] | KD mutant/KD wild type [7] [fold] | KD mutant/KD wild type [8] [fold] | KD mutant/KD wild type [9] [fold] | binding result [3] | binding result [7] | binding result [9] | binding result [5] | binding result [4]
1 | Fab fragment of antibody 15011 (Fab, V domains shown, not shown: a dimerising Fc or GST, monomeric Fab made by GingisKHAN digestion of the IgG1) VH: EVQLLESGGGLVQPGGSLRLSCAASGFDFRSYAMMWVRQAPGKGLEWVGGINGEVGGSNTYYAPAVKGRATISRDNSKNTLYLQMNSLRAEDTAVYYCVKGAGACGICNDDIDAWGQGTLVTVSS VL: SYELTQDPAVSVALGQTVRITCSGAGSYAGSYYYGWHQQKPGQAPVTVIYDNDKRPSNIPDRFSGSSSGNTASLTITGAQAEDEADYYCGSTNDNDDGGLFGSGTKVTVLG | 0.6 | 0.5 | 2 | 1.9 | 0.6 | 0.6 | 0.7 | 0.7 | 0.6 | – | – | – | – | –
2 | Fab fragment of antibody 15572 (Fab, V domains shown, not shown: a dimerising Fc or GST, monomeric Fab made by GingisKHAN digestion of the IgG1) VH: QLQLQESGPGLVKPSETLSLTCTVSGDSISSSSYYWGWIRQPPGKGLEWIGSIFYSGNTYYNPSLKSRVTISVDTSKNQFSLKLSSVTAADTAVYYCAREDDFLTDYYGAFDIWGQGTMVTVSS VL: not shown | 0.5 | 0.8 | – | 3.1 | 0.7 | 0.5 | – | 1.1 | – | no binding (tested: 300 nM) | no binding (tested: 300 nM) | no binding (tested: 300 nM) | – | –
3 | Fab fragment of antibody 15532 (Fab, V domains shown, not shown: a dimerising Fc or GST, monomeric Fab made by GingisKHAN digestion of the IgG1) VH: QVQLQQWGAGLLRPSETLSLTCAVYGESFSGYYWNWIRQPPGKGLEWIGEINHSGSTNYNPSLKSRVTISVDTSKTQFSLKLSSVTAADTAVYYCARGWDLLDWNDYWNEYWGQGTLVTVSS VL: EIVLTQSPATLSLSPGERATLSCRASQSVSSYLAWYQQKPGQAPRLLIYDASNRATGIPARFSGSGSGTDFTLTISSLEPEDFAVYYCQQRSNWPLTFGGGTKVEIKR | 4.8 | 1.3 | 2.5 | 6.5 | – | 1.5 | 1.1 | 3.9 | 0.5 | – | – | – | no binding (tested: 300 nM) | –
4 | Fab fragment of antibody 15431 (Fab, V domains shown, not shown: a dimerising Fc or GST, monomeric Fab made by GingisKHAN digestion of the IgG1) VH: QVQLQQSGPGLVKPSQTLSLTCAISGDSVSSNSAAWNWIRQSPSRGLEWLGRTYYRSKWYNDYAVSVKSRITINPDTSKNQFSLQLNSVTPEDTAVYYCARDDDWNDFDYWGQGTLVTVSS VL: EIVLTQSPATLSLSPGERATLSCRASQSVSSYLAWYQQKPGQAPRLLIYDASNRATGIPARFSGSGSGTDFTLTISSLEPEDFAVYYCQQRSNWPLTFGGGTKVEIKR | 1.1 | 0.6 | 3.5 | – | – | 0.4 | 0.6 | 0.4 | 0.5 | – | – | – | no binding (tested: 300 nM) | no binding (tested: 300 nM)
